B1: Fab S8 (Fab, V domains shown)
VH: LESGGGLVKPGGSLRLSCAASGFTFSSYAMHWVRQAPGKGLEWVAFIWFDGSNERYADSVKGRFTITRDNPKNTLYLQMNSLRVEDTAVYYCVRRGGSILTGFHLDYWGQGTLVTVSS
VL: ELTQSPSSLSASVGDRVTITCRASQGIRDDLGWYQQKPGKAPKRLIYAASNLQSGVPSRFSGGGSGTEFTLTISSLQPEDFATYYCLQHNSYPLTFGGGTKVEIKR
B2: Fab S20 (Fab, V domains shown)
VH: LESGGGVVQPGRSLRLSCSASGFSFRDYAMHWVRQAPGKGLEWVAFIWFDGSNERYADSVKGRFTITRDNPKNTLYLQMNSLRVEDTAVYYCVRRGGSILTGFHLDYWGQGTLVTVSS
VL: ELTQSPSSLSASVGDRVTITCRASQGIRDDLGWYQQKPGKAPKRLIYAASNLQSGVPSRFSGGGSGTEFTLTISSLQPEDFATYYCLQHNSYPLTFGGGTKVEIKR
B3: Fab S8 HCDR3 mutant Arg95Gly (Fab, V domains shown)
VH: LESGGGLVKPGGSLRLSCAASGFTFSSYAMHWVRQAPGKGLEWVAFIWFDGSNERYADSVKGRFTITRDNPKNTLYLQMNSLRVEDTAVYYCVRGGGSILTGFHLDYWGQGTLVTVSS
VL: ELTQSPSSLSASVGDRVTITCRASQGIRDDLGWYQQKPGKAPKRLIYAASNLQSGVPSRFSGGGSGTEFTLTISSLQPEDFATYYCLQHNSYPLTFGGGTKVEIKR
B4: Fab S20 HCDR3 mutant Arg95Asp (Fab, V domains shown)
VH: LESGGGVVQPGRSLRLSCSASGFSFRDYAMHWVRQAPGKGLEWVAFIWFDGSNERYADSVKGRFTITRDNPKNTLYLQMNSLRVEDTAVYYCVRDGGSILTGFHLDYWGQGTLVTVSS
VL: ELTQSPSSLSASVGDRVTITCRASQGIRDDLGWYQQKPGKAPKRLIYAASNLQSGVPSRFSGGGSGTEFTLTISSLQPEDFATYYCLQHNSYPLTFGGGTKVEIKR
notes: The text names only S2095K for S20
B5: Fab S20 HCDR3 mutant Arg95Gly (Fab, V domains shown)
VH: LESGGGVVQPGRSLRLSCSASGFSFRDYAMHWVRQAPGKGLEWVAFIWFDGSNERYADSVKGRFTITRDNPKNTLYLQMNSLRVEDTAVYYCVRGGGSILTGFHLDYWGQGTLVTVSS
VL: ELTQSPSSLSASVGDRVTITCRASQGIRDDLGWYQQKPGKAPKRLIYAASNLQSGVPSRFSGGGSGTEFTLTISSLQPEDFATYYCLQHNSYPLTFGGGTKVEIKR
notes: See note of m21
B6: Fab S8 HCDR3 mutant Arg95Asp (Fab, V domains shown)
VH: LESGGGLVKPGGSLRLSCAASGFTFSSYAMHWVRQAPGKGLEWVAFIWFDGSNERYADSVKGRFTITRDNPKNTLYLQMNSLRVEDTAVYYCVRDGGSILTGFHLDYWGQGTLVTVSS
VL: ELTQSPSSLSASVGDRVTITCRASQGIRDDLGWYQQKPGKAPKRLIYAASNLQSGVPSRFSGGGSGTEFTLTISSLQPEDFATYYCLQHNSYPLTFGGGTKVEIKR
B7: Fab S20 HCDR3 mutant Arg95Pro (Fab, V domains shown)
VH: LESGGGVVQPGRSLRLSCSASGFSFRDYAMHWVRQAPGKGLEWVAFIWFDGSNERYADSVKGRFTITRDNPKNTLYLQMNSLRVEDTAVYYCVRPGGSILTGFHLDYWGQGTLVTVSS
VL: ELTQSPSSLSASVGDRVTITCRASQGIRDDLGWYQQKPGKAPKRLIYAASNLQSGVPSRFSGGGSGTEFTLTISSLQPEDFATYYCLQHNSYPLTFGGGTKVEIKR
notes: See note of m21
B8: Fab S8 HCDR3 mutant Arg95Pro (Fab, V domains shown)
VH: LESGGGLVKPGGSLRLSCAASGFTFSSYAMHWVRQAPGKGLEWVAFIWFDGSNERYADSVKGRFTITRDNPKNTLYLQMNSLRVEDTAVYYCVRPGGSILTGFHLDYWGQGTLVTVSS
VL: ELTQSPSSLSASVGDRVTITCRASQGIRDDLGWYQQKPGKAPKRLIYAASNLQSGVPSRFSGGGSGTEFTLTISSLQPEDFATYYCLQHNSYPLTFGGGTKVEIKR

Values joined by “and” are separate entries in the source; they are usually repeats but may differ in a detail not shown here. Identical values can stand only once.

One test has as its target B1. The test is described as follows: phage display panning on coated Fab S8, round 2, 12-mer library, 1 clone; clone not tested singly.
On to HTKCSDASCPLI [peptide of phage clone 2r1], for which the binding result is “binds”.
On the same count and under the same terms, the result for FYTPTMHSYGIQ [peptide of phage clone 2r6] reads “binds”; that for HGHPLKTNTHRS [peptide of phage clone 2r3], “binds”; that for NYFQQPPERHSS [peptide of phage clone 2r10], “binds”.
On the same count and under the same terms, the result for TTGDHRAFWLGG [peptide of phage clone 2r9] reads “binds”; that for NFQTPDRTQSNL [peptide of phage clone 2r5], “binds”.
As to MPNPRQNPPPPL [peptide of phage clone 2r4], the binding result was “binds”.
Still for that read-out and setting: the result for SVSPNMRMLHWW [peptide of phage clone 2r7] reads “binds”.

The target of a further test is gp120 of HIV-1 RF strain (HIV-1 RF, UniProt P04579 32-519). The test is described as follows: cell-based or functional assay.
Turning to B1, the “% neutralisation, infectivity reduction assay (IRA) in MT-2 cells” value was 50 % neutralisation at 1 µg/ml and > 90 % neutralisation at 10 µg/ml.

The target in the next test is gp120 of HIV-1 SF-2 strain (HIV-1 SF-2, UniProt P03378 32-509). The test is described as follows: cell-based or functional assay.
B1: the “% neutralisation, infectivity reduction assay (IRA) in MT-2 cells” value is 50 % neutralisation at 1 µg/ml and > 90 % neutralisation at 10 µg/ml.

A further test addresses gp120 of HIV-1 MN strain (HIV-1 MN, UniProt P05877 32-513). The test is described as follows: cell-based or functional assay.
On to B2, for which the “% neutralisation, neutralisation plaque assay (NPA) in MT-4 cells” value was 90 % neutralisation at 20 µg/ml.
Regarding B1, the “% neutralisation, infectivity reduction assay (IRA) in MT-2 cells” value was 50 % neutralisation at 1 µg/ml and > 90 % neutralisation at 10 µg/ml; the “% neutralisation, neutralisation plaque assay (NPA) in MT-4 cells” value is 90 % neutralisation at 20 µg/ml.

A further test has as its target B1. The test is described as follows: phage display panning on coated Fab S8, round 3, 12-mer library, 1 clone; clone not tested singly.
As to MQSQLYRDSPRG [peptide of phage clone 3r9], the binding result is on record as “binds”.
The same measure, in the same setting: next, GTTQNAMSLARL [peptide of phage clone 3r5]: “binds”.
Still for that read-out and setting: the result for KAPIPSSIPGFR [peptide of phage clone 3r4] reads “binds”; that for HASTPSSPWSRP [peptide of phage clone 3r7], “binds”; that for QPTTPFFDWDTH [peptide of phage clone 3r6], “binds”.
Still for that read-out and setting: next, HIETLLPAPELS [peptide of phage clone 3r3]: “binds”; SAKPSYQPYAQP [peptide of phage clone 3r1]: “binds”; LPNATKLAPISP [peptide of phage clone 3r10]: “binds”.

The next test deals with B1. The test is described as follows: phage display panning on coated Fab S8, round 4, 7-mer library Ph.D.-C7, 2 clones; clone not tested singly.
On to SAMEAPP (also called 4c7) [peptide of phage clone c72R4], for which the binding result is “binds”.

The next test addresses B1. The test is described as follows: phage display panning on coated Fab S8, round 4, 12-mer library, 1 clone; clone not tested singly.
As to ADVMLHSKHVQM [peptide of phage clone 4r15], the binding result is recorded as “binds”.
On the same count and under the same terms, next, WFKPPQTPLTLM [peptide of phage clone 4r5]: “binds”; TAMNLGPALFRT [peptide of phage clone 4r3]: “binds”; SASTPSSPWSRP [peptide of phage clone 4r17]: “binds”.
The same measure, in the same setting: the result for TMQPYKSWWSSK [peptide of phage clone 4r10] reads “binds”.

The target in another test is B1. The test is described as follows: phage display panning on coated Fab S8, round 1, 12-mer library, 1 clone; clone not tested singly.
As for HDEFVWISIWEP [peptide of phage clone 1r5], the binding result is reported as “binds”.
On the same count and under the same terms, next, FPASMPGLLLRV [peptide of phage clone 1r2]: “binds”; QVMRMMPNGVYC [peptide of phage clone 1r3]: “binds”; SGLDGMHVNSPW [peptide of phage clone 1r1]: “binds”.
On the same count and under the same terms, the result for CLSSNSSPPPRP [peptide of phage clone 1r8] reads “binds”; that for QDRALITPLDQT [peptide of phage clone 1r4], “binds”; that for LFQKQIESPWRS [peptide of phage clone 1r10], “binds”.
Still for that read-out and setting: next, SSCAAFWSKARP [peptide of phage clone 1r7]: “binds”.
For HTRVLPSTAMTL [peptide of phage clone 1r9], the binding result is “binds”.
The same measure, in the same setting: next, WTTNFADPPSST [peptide of phage clone 1r6]: “binds”.

A further test deals with T1, recombinant gp120 III-B (HIV-1 III-B, UniProt P04578 33-511).
T1 construct: domain: gp120; also called gp120 III-B (LAI); HIV-1 gp120
The test is described as follows: ELISA on gp120 III-B. On the technique in general: In an ELISA, binding on a coated surface is turned into a signal by an enzyme label.
Protocol: Soluble Fabs from each resulting HC/LC pair were tested for binding to gp120 Ill-B and BSA in ELISA a s above. […] Soluble Fabs from each mutant were tested for binding to gp120 III-B and BSA in ELISA as above.
Turning to B3, the binding result is recorded as “no binding”.
On to B4, for which the binding result is recorded as “no binding”.
On the same count and under the same terms, next, B5: “no binding”; B6: “no binding”; B7: “no binding”.
Same read-out and setting: next, B8: “no binding”.

Values taken from US20040106105A1 (published 2004).
